Test results published in patent publication US20250177443A1 (ACADEMISCH ZIEKENHUIS LEIDEN H O D N LUMC, published 2025).

Key:
HLA-A*02:01 = biological target: T1, HLA-A*02:01 (human); experiment: stable pHLA monomer refolding
T1 construct: also called HLA-A2

HLA-A*11:01 = HLA-A*11:01 (human); experiment: stable pHLA monomer refolding
HLA-B*40:01 = HLA-B*40:01 (human); experiment: stable pHLA monomer refolding
[1] = biological target: T2, Jchain (joining chain) peptide on HLA-A*01:01 (human); experiment: multimer staining
T2 peptide: YTAVVPLVY

[2] = biological target: T3, Jchain (joining chain) peptide on HLA-A*03:01 (human); experiment: killing
T3 peptide: ISDPTSPLRTR

[3] = biological target: T4, Jchain (joining chain) peptide on HLA-A*11:01 (human); experiment: NSG mice with established U266 + HLA-A11 + luciferase; 3-6x10^6 TCR-transduced CD8 T cells i.v.; bioluminescence; full-length, on cells
T4 peptide: ISDPTSPLRTR
Text: (§1) Subsequently, mice were infused with 3-6×10\hat{ }6 Jchain HLA-A1, -A24, -A3 or -A11 TCR or irrelevant CMV TCR Td CD8 T cells after which tumor outgrowth was followed measuring bioluminescence at regular intervals (FIG. 7A,B).

[4] = biological target: T4, Jchain (joining chain) peptide on …; experiment: killing
[5] = biological target: T3, Jchain (joining chain) peptide on …; experiment: NSG mice with established wild-type HLA-A3pos U266 + luciferase; TCR-transduced CD8 T cells i.v.; bioluminescence; complete eradication in hIL-7/hIL-15 NSG mice (FIG. 15); full-length, on cells
HLA-A*03:01 = biological target: T5, HLA-A*03:01 (human); experiment: stable pHLA monomer refolding
T5 construct: also called HLA-A3

HLA-A*01:01 = biological target: T6, HLA-A*01:01 (human); experiment: stable pHLA monomer refolding
T6 construct: also called HLA-A1

HLA-A*24:02 = HLA-A*24:02 (human); experiment: stable pHLA monomer refolding
[6] = biological target: T7, Jchain (joining chain) peptide on HLA-A*24:02 (human); experiment: NSG mice with established U266 + HLA-A24 + luciferase; 3-6x10^6 TCR-transduced CD8 T cells i.v.; bioluminescence; full-length, on cells
T7 peptide: CYTAVVPLV
Text: as §1

Binder: VLAVFIKAVHV (also called VLA1 peptide) [Jchain derived peptide VLAVFIKAVHV (SEQ ID NO: 103)]
- binding result (HLA-A*02:01): binds

Binder: RIIVPLNNR (also called RII peptide) [Jchain derived peptide RIIVPLNNR (SEQ ID NO: 106)]
- binding result (HLA-A*11:01): binds

Binder: GETKMVETAL (also called GET peptide) [Jchain derived peptide GETKMVETAL (SEQ ID NO: 107)]
- binding result (HLA-B*40:01): binds

B1: TCR clone 13F6.6 (TCR, V domains shown)
Valpha: AQSVSQHNHHVILSEAASLELGCNYSYGGTVNLFWYVQYPGQHLQLLLKYFSGDPLVKGIKGFEAEFIKSKFSFNLRKPSVQWSDTAEYFCAASSGGYQKVTFGIGTKLQVIP
Vbeta: DVKVTQSSRYLVKRTGEKVFLECVQDMDHENMFWYRQDPGLGLRLIYFSYDVKMKEKGDIPEGYSVSREKKERFSLILESASTNQTSMYLCASSLRREVGDTQYFGPGTRLTVL
- binding result [1]: recognises

B2: TCR clone 16C7.9 (TCR, V domains shown)
Valpha: AQKITQTQPGMFVQEKEAVTLDCTYDTSDPSYGLFWYKQPSSGEMIFLIYQGSYDQQNATEGRYSLNFQKARKSANLVISASQLGDSAMYFCAMREDYTGGFKTIFGAGTRLFVKA
Vbeta: GAGVSQTPSNKVTEKGKYVELRCDPISGHTALYWYRQSLGQGPEFLIYFQGTGAADDSGLPNDRFFAVRPEGSVSTLKIQRTERGDSAVYLCASSLISGGNEQFFGPGTRLTVL
- binding result [2]: no recognition
- fold lower tumor load than in CMV TCR control mice [3]: 190 fold

B3: TCR clone 5C8.16 (TCR, V domains shown)
Valpha: AQSVTQLDSHVSVSEGTPVLLRCNYSSSYSPSLFWYVQHPNKGLQLLLKYTSAATLVKGINGFEAEFKKSETSFHLTKPSAHMSDAAEYFCVVKWADSWGKLQFGAGTQVVVTP
Vbeta: AAGVIQSPRHLIKEKRETATLKCYPIPRHDTVYWYQQGPGQDPQFLISFYEKMQSDKGSIPDRFSAQQFSDYHSELNMSSLELGDSALYFCASSLGTGNFYEQYFGPGTRLTVT
- binding result [4]: no recognition
- fold lower tumor load than in CMV TCR control mice [5]: 70 fold

Binder: ISDPTSPLRTR (also called ISD peptide) [Jchain derived peptide ISDPTSPLRTR (SEQ ID NO: 101)]
- binding result (HLA-A*03:01): binds
- binding result (HLA-A*11:01): binds

Binder: TAVVPLVY (also called TAV peptide) [Jchain derived peptide TAVVPLVY (SEQ ID NO: 102)]
- binding result (HLA-A*01:01): binds

B4: TCR clone 4G8.8 (TCR, V domains shown)
Valpha: AQTVTQSQPEMSVQEAETVTLSCTYDTSENNYYLFWYKQPPSRQMILVIRQEAYKQQNATENRFSVNFQKAAKSFSLKISDSQLGDTAMYFCAFMKHVEYGNKLVFGAGTILRVKS
Vbeta: DAGITQSPRHKVTETGTPVTLRCHQTENHRYMYWYRQDPGHGLRLIHYSYGVKDTDKGEVSDGYSVSRSKTEDFLLTLESATSSQTSVYFCAARDSANEKLFFGSGTQLSVL
- binding result [1]: recognises

Binder: YTAVVPLV [Jchain derived peptide YTAVVPLV (SEQ ID NO: 105)]
- binding result (HLA-A*02:01): binds

Binder: CYTAVVPLV (also called CYT peptide) [Jchain derived peptide CYTAVVPLV (SEQ ID NO: 100)]
- binding result (HLA-A*24:02): binds

B5: TCR clone 10H11.11 (TCR, V domains shown)
Valpha: EDQVTQSPEALRLQEGESSSLNCSYTVSGLRGLFWYRQDPGKGPEFLFTLYSAGEEKEKERLKATLTKKESFLHITAPKPEDSATYLCAVLSGGSYIPTFGRGTSLIVHP
Vbeta: DTGVSQDPRHKITKRGQNVTFRCDPISEHNRLYWYRQTLGQGPEFLTYFQNEAQLEKSRLLSDRFSAERPKGSFSTLEIQRTEQGDSAMYLCASSPLLRDSEEKLFFGSGTQLSVL
- fold lower tumor load than in CMV TCR control mice [6]: 209 fold

Binder: VLAVFIKAV (also called VLA2 peptide) [Jchain derived peptide VLAVFIKAV (SEQ ID NO: 104)]
- binding result (HLA-A*02:01): binds
